Measured values published in paper PMC6345952, “Novel pseudo-aspartic peptidase from the midgut of the tick Rhipicephalus microplus” (Scientific Reports, 2019).

Target: T1, Rhipicephalus microplus pseudo-aspartic peptidase wild type (Rhipicephalus microplus, UniProt A0A411AQW7 21-361)
T1 construct: RmPAP, pseudo-aspartic peptidase of Rhipicephalus microplus (GenBank MH427522); mature RmPAP (R21-K361) without the putative signal peptide M1-A20; lacks the second catalytic Asp (Pro242); Cloned into pET14b with an N-terminal His tag; the primers that fix the construct's limits are in Sup; also called RmPAPWT; RmPAP
T1 sequence: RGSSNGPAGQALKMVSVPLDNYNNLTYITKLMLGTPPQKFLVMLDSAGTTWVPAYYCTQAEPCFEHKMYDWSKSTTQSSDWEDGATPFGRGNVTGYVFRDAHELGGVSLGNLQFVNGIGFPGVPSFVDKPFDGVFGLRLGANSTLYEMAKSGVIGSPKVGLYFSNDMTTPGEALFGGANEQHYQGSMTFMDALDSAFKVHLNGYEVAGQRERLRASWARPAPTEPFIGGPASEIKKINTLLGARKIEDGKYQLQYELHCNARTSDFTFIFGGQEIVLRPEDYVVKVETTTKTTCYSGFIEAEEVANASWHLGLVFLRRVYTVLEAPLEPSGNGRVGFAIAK
Experiment: SPR; Biacore T-200; bovine hemoglobin immobilised on a CM5 chip (FC 2) in acetate buffer pH 5.5, BSA on FC 1 as reference; increasing concentrations of RmPAPWT injected in 10 mM phosphate-citrate buffer, pH 4, 0.15 M NaCl, 20 uL/min; steady-state response (FC2 - FC1) fitted
Conditions: both partners purified

B1: bovine hemoglobin (complex)
chain 1: not shown
chain 2: not shown
notes: hemoglobin alpha chain, bovine; hemoglobin beta chain, bovine; the heme groups are not written
Kd: 0.0335 µM
